Test results published in patent publication US20240016892A1 (SHATTUCK LABS, published 2024).

Columns and labels:
[1] = target: T1, recombinant human Nectin-4 (human, UniProt Q96NY8 32-349); assay: MSD: capture hNectin-4; detection anti-Fc-HRP
T1 sequence (looked up): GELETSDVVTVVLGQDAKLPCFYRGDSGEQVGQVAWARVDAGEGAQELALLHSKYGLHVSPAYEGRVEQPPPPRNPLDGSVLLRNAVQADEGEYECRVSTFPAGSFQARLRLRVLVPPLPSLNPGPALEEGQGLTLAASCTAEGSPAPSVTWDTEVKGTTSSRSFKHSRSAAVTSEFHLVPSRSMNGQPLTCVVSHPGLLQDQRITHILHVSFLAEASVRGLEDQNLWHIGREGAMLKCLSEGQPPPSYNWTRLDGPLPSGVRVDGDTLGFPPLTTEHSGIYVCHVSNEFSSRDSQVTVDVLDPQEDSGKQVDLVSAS

[2] = target: T2, recombinant human PVR (human, UniProt P15151 21-343); assay: MSD sandwich 'Dual - Potency #2': capture HVEM-Fc, TIGIT-Fc-LIGHT titrated, detection PVR-Biotin (same curve as the capture row)
T2 construct: The tagged PVR of the BLI assay and the biotinylated PVR used as detector in MSD are treated as one molecule; also called rhPVR; CD155
T2 sequence (looked up): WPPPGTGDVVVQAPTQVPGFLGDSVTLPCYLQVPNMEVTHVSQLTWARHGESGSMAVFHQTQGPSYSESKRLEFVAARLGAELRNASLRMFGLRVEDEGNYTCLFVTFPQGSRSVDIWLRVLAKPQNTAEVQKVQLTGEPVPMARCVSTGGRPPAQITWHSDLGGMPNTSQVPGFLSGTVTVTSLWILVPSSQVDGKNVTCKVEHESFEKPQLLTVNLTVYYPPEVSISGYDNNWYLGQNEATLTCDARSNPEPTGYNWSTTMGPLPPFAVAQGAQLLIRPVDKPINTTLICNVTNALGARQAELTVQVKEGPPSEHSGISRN
Experimental: (§1) For the TIGIT-Fc-LIGHT chimeric protein; MSD Multi-Array plates (MSD) were pre-coated overnight with recombinant human LTβR-Fc or HVEM-Fc (Acro Biosystems) at 4° C. The plates were blocked with Diluent 100 (MSD) for at least one hour at room temperature on a shaker. After washing, analysis samples were added and then serially diluted 3-fold and loaded in duplicate wells to generate 8-10 test concentrations. The bound the TIGIT-Fc-LIGHT chimeric protein was detected with recombinant biotinylated human PVR (Acro Biosystems). Streptavidin conjugated to ruthenium (MSD), was added to bind the biotin labeled detector. MSD Gold Reading buffer (MSD) was added to the plate, and upon application of an electrical charge, an electrochemiluminescent signal was produced and detected with the MSD MESO QuickPlex SQ 120MM, Model 1300, to generate relative light units (RLU). Analogous assays were performed using mTIGIT-Fc-LIGHT and murine recombinant PVR, HVEM, and […] (Acro Biosystems).
(§2) The binding of the TIGIT-Fc-LIGHT chimeric protein to its receptors was characterized by Meso Scale Discovery (MSD) ELISA assays. […] Binding of the chimeric protein to LTβR-Fc was detected using an PVR-Biotin and using an electrochemiluminescence (ECL) readout. […] Binding of the chimeric protein to HVEM-Fc was detected using an PVR-Biotin and using an electrochemiluminescence (ECL) readout. […]

[3] = target: T3, recombinant human LTβR-Fc (human, UniProt P36941 31-227, limits assumed); assay: MSD sandwich 'Dual - Potency #1': capture LTβR-Fc, TIGIT-Fc-LIGHT titrated, detection PVR-Biotin
T3 construct: not shown: Fc of the bought fusion (Acro Biosystems); not described
Experimental: as §1, §2

[4] = target: T4, recombinant human HVEM-Fc (human, UniProt Q92956 39-202, limits assumed); assay: MSD sandwich 'Dual - Potency #2': capture HVEM-Fc, TIGIT-Fc-LIGHT titrated, detection PVR-Biotin
T4 construct: also called human recombinant HVEM (MSD plates); not shown: Fc of the bought fusion (Acro Biosystems); not described
T4 sequence (looked up): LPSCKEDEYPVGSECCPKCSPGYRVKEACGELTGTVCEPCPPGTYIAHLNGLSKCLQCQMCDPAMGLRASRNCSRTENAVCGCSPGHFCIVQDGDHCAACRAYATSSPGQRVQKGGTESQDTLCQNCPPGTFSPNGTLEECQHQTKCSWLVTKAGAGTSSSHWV
Experimental: as §1, §2

[5] = target: T5, recombinant human CD112 (PVRL2) (human, UniProt Q92692 32-360); assay: BLI (Octet-Red96), tagged rhCD112 (PVRL2) immobilised on biosensor
T5 construct: also called rhCD112 (PVRL2); Nectin-2
T5 sequence (looked up): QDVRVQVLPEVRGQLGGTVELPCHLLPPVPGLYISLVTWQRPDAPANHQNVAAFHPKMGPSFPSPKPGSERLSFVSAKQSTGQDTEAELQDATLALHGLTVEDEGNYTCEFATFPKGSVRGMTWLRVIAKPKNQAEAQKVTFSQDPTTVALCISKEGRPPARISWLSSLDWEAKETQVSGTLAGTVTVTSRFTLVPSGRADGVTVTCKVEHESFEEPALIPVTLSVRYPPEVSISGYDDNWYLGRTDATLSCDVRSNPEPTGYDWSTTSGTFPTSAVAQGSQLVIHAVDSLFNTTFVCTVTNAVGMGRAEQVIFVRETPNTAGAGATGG
Experimental: Bio-Layer interferometry-based affinity testing was used to determine the on-rates (Ka), off-rates (Kd) and binding affinities (KD) of the TIGIT-Fc-LIGHT chimeric protein to intended binding targets, using histidine- or biotin-tagged versions of the human recombinant proteins (PVR, HVEM, LTβR, PVRL2, PVRL3, and Nectin-4; purchased from Acro Biosystems or Sino Biological). Commercially available or internally produced single-sided fusion protein controls (TIGIT-Fc and Fc-LIGHT) were also tested in parallel. Targets were immobilized at a concentration of 3 μg/mL in Kinetics buffer (PBS/0.1% Tween-20/1% BSA; pH7.0) to anti-pentaHis or streptavidin coated biosensors. Direct binding of fusion proteins to recombinant target proteins was performed on an Octet-Red96 BLI instrument, using association and dissociation times of 90 and 120 seconds, respectively.

[6] = target: T6, anti-human TIGIT antibody (MSD capture); assay: MSD sandwich 'Dual - Antibody': capture anti-TIGIT, TIGIT-Fc-LIGHT titrated, detection anti-LIGHT
T6 construct: also called anti-TIGIT antibody

T3 sequence (P36941 31-227 limits assumed): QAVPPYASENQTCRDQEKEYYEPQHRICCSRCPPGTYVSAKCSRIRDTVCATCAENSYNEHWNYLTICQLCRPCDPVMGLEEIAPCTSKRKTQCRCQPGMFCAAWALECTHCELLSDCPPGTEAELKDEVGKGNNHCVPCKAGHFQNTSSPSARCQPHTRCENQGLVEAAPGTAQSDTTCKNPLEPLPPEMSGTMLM

B1: human TIGIT-Fc-LIGHT chimeric protein (Fc fusion)
chain: MMTGTIETTGNISAEKGGSIILQCHLSSTTAQVTQVNWEQQDQLLAICNADLGWHISPSFKDRVAPGPGLGLTLQSLTVNDTGEYFCIYHTYPDGTYTGRIFLEVLESSVAEHGARFQIPSKYGPPCPPCPAPEFLGGPSVFLFPPKPKDQLMISRTPEVTCVVVDVSQEDPEVQFNWYVDGVEVHNAKTKPREEQFNSTYRVVSVLTVLHQDWLSGKEYKCKVSSKGLPSSIEKTISNATGQPREPQVYTLPPSQEEMTKNQVSLTCLVKGFYPSDIAVEWESNGQPENNYKTTPPVLDSDGSFFLYSRLTVDKSRWQEGNVFSCSVLHEALHNHYTQKSLSLSLGKIEGRMDLQLHWRLGEMVTRLPDGPAGSWEQLIQERRSHEVNPAAHLTGANSSLTGSGGPLLWETQLGLAFLRGLSYHDGALVVTKAGYYYIYSKVQLGGVGCPLGLASTITHGLYKRTPRYPEELELLVSQQSPCGRATSSSRVWWDSSFLGGVVHLEAGEKVVVRVLDERLVRLRDGTRSYFGAFMV
notes: Said to exist as a hexamer (dimer of trimers); Glycosylated; also called hTIGIT-Fc-LIGHT; TIGIT-Fc(IgG4)-LIGHT
Q: What does the source list for B1?
A: binding result [1]: binds; EC50 [2]: 86 nM; EC50 [3]: 28.3 nM; EC50 [4]: 86 nM; Kd [5]: 3 nM; koff [5]: 0.000471 s⁻¹; kon [5]: 172000 M⁻¹ s⁻¹; EC50 [6]: 1.15 nM
